B4: human MCAM, full length, expressed on transfected cells (receptor)
chain: VPGEAEQPAPELVEVEVGSTALLKCGLSQSQGNLSHVDWFSVHKEKRTLIFRVRQGQGQSEPGEYEQRLSLQDRGATLALTQVTPQDERIFLCQGKRPRSQEYRIQLRVYKAPEEPNIQVNPLGIPVNSKEPEEVATCVGRNGYPIPQVIWYKNGRPLKEEKNRVHIQSSQTVESSGLYTLQSILKAQLVKEDKDAQFYCELNYRLPSGNHMKESREVTVPVFYPTEKVWLEVEPVGMLKEGDRVEIRCLADGNPPPHFSISKQNPSTREAEEETTNDNGVLVLEPARKEHSGRYECQAWNLDTMISLLSEPQELLVNYVSDVRVSPAAPERQEGSSLTLTCEAESSQDLEFQWLREETDQVLERGPVLQLHDLKREAGGGYRCVASVPSIPGLNRTQLVKLAIFGPPWMAFKERKVWVKENMVLNLSCEASGHPRPTISWNVNGTASEQDQDPQRVLSTLNVLVTPELLETGVECTASNDLGKNTSILFLELVNLTTLTPDSNTTTGLSTSTASPHTRANSTSTERKLPEPESRGVVIVAVIVCILVLAVLGAVLYFLYKKGKLPCRRSGKQEITLPPSRKTELVVEVKSDKLPEEMGLLQGSSGDKRAPGDQGEKYIDLRH
notes: CHO cells transfected with the full length human MCAM gene; also called hMCAM; CD146

The target of experiment [1] is T1, full length MCAMhFc protein (extracellular domain of human MCAM fused to human IgG) (human, UniProt P43121 24-559).
T1 construct: also called hMCAM-Fc; Human MCAM-Fc protein; not shown: human IgG (Fc) portion
T1 chain: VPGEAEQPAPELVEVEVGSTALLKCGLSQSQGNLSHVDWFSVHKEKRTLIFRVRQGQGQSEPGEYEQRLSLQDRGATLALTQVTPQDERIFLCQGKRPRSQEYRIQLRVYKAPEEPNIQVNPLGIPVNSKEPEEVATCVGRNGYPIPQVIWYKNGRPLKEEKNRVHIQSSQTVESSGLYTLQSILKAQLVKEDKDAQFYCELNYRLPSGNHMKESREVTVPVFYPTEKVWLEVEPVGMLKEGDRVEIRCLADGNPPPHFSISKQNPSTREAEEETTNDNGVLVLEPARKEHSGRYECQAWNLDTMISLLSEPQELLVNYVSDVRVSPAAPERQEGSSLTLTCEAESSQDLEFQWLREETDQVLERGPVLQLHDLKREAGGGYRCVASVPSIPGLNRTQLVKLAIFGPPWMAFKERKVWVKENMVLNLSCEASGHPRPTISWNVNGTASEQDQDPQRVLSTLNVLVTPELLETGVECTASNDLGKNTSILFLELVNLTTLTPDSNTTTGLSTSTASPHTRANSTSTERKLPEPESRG
Put plainly: summary of Examples 2 and 3.

Experiment [2] deals with T2, human MCAM domain 1 (MCAMhFc domain construct) (human, UniProt P43121 19-129).
T2 construct: also called amino acids 19-129; not shown: human Fc portion (captured on anti-human IgG Fc biosensors)
T2 sequence: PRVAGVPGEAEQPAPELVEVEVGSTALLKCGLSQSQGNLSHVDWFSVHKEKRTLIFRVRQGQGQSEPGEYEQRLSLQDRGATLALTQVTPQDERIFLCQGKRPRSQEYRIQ
Put plainly: ForteBio Octet Red, MCAMhFc domains on anti-human IgG Fc biosensors. The source says: (§1) The following protocol was used: ForteBio anti-human IgG Fc biosensors were used to immobilize various MCAMhFc domains including full length MCAMhFc protein on to biosensor surface. […] After loading these samples into a black 96 well plate, the Octet Red was programmed as follows: 60 seconds for baseline #1; 180 seconds for loading various domains; 60 seconds for baseline #2; 180 seconds for association of antibody to domain; and 240 seconds for dissociation of antibody from domain.
(§2) 1. MCAMhFc final concentration@5 ug/ml [0374] […] 3. ForteBio anti-human IgG Fc Capture (AHC) biosensors for kinetics experiments, cat #18-5060 [0376] 4. Block 96 well plate from Greiner Bio-one, cat #655209 [0377] 5. ForteBio Octet Red machine [0378] 6. Fresh tissue culture medium, DMEM with 20% FCS, was used as buffer for dilution

For experiment [3], the target named is T3, human MCAM domain 2 (MCAMhFc domain construct) (human, UniProt P43121 139-242).
T3 construct: not shown: human Fc portion
T3 sequence: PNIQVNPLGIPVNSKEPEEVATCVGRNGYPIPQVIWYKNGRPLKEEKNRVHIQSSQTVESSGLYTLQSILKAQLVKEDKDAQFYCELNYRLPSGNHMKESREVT
Described as above.
Source text: as §1, §2

The target of experiment [4] is T4, combination of human MCAM domains 1 and 2 (MCAMhFc domain construct) (human, UniProt P43121 19-242).
T4 construct: not shown: human Fc portion
T4 sequence: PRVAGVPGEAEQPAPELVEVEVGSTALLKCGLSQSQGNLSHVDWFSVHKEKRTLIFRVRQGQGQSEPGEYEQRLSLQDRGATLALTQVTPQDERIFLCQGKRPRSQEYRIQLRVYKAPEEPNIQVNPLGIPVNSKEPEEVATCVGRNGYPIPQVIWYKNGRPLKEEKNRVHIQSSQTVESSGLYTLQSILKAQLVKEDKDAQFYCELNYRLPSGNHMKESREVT
The experiment is described as above.
Source text: as §1, §2

For experiment [5], the target named is T5, human MCAM domain 3 (MCAMhFc domain construct) (human, UniProt P43121 244-321).
T5 construct: also called amino acids 244-321; not shown: human Fc portion
T5 sequence: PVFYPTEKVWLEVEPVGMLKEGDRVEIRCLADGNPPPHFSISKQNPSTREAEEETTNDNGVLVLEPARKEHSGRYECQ
The experiment is described as follows: ForteBio Octet Red, MCAMhFc domains on anti-human IgG Fc biosensors, antibody at 5 ug/ml.
Source text: as §1, §2

For experiment [6], the target named is B4. Put plainly: blocking of laminin 411 (20 ug/ml) binding to CHO cells expressing human MCAM, flow cytometry. How it is done: The 87 independent mouse fusion clones and 26 independent rat fusion clones described in Example 1 above as being capable of (i) binding to human MCAM, and (ii) blocking the interaction between human MCAM and the α-4 chain of laminin were further characterized as follows. First, IC50 quantitation for the ability of the monoclonal antibody to block the binding of human MCAM to the α-4 chain of laminin was determined as follows. CHO cells expressing human MCAM were incubated with an anti-human MCAM antibody (at various concentrations) for 30 minutes at 4 degrees Celsius. […] Unbound laminin was then washed away, and the laminin bound to the surface of the cells was detected with fluorescently labeled anti-laminin antibodies. After washing, the amount of laminin bound to the surface was detected by flow cytometry, and IC50s were calculated based on the mean fluorescent intensity.
Amino acid and nucleic acid sequences of the heavy and light chains of these antibodies, and their hypervariable regions, are provided in SEQ ID NOs:29-92. […] As such, each of these specific monoclonal antibodies was very capable of binding to human MCAM and inhibiting the interaction of cell-expressed human MCAM with its α-4 laminin binding ligand.

Another experiment addresses T6, recombinant laminin 511 (UniProt O15230 36-3695; P07942 22-1786; P11047 34-1609).
T6 construct: also called laminin 10 (α5β1γ1)
Put plainly: CHO cells transfected with human MCAM incubated with laminin, pan-laminin antibody, flow cytometry.

Among the data in patent publication US20150259419A1 (PROTHENA BIOSCIENCES, published 2015) are binding result and IC50 values, retold here.

B1: mouse anti-human MCAM monoclonal antibody clone 1174.1.3 (antibody, V domains shown)
VH: QIQLVQSGPELKKPGETVKISCKASGYTFTNYGMNWVKQAPGKGLKWMGWINTYTGEPTYADDFKGRFALSLETSASTAYLQINNLKNEDMATYFCARYRYNKYERAMDYWGQGTSVTVSS
VL: DIVLTQSPASLAVSLGQRATISCRASKSVSTSGYSYMYWYQQKPGQPPKLLIYLASNLESGVPARFSGSGSGTDFTLNIHPVEEEDAATYYCQHSRELPFTFGSGTKLEIK
notes: Mouse hybridoma antibody
For the molecule B1, the binding result is “binds” in experiment [1]; “no binding (tested: 5 ug/ml)” in experiment [2]; “no binding (tested: 5 ug/ml)” in experiment [3]; “no binding (tested: 5 ug/ml)” in experiment [4]; “binds” in experiment [5]. This molecule yielded an IC50 in experiment [6] of 0.469 µg/mL.

B2: mouse anti-human MCAM monoclonal antibody clone 1414.1.2 (antibody, V domains shown)
VH: EIQLQQTGPELVKPGASVKISCKASGYSFTDYIMLWVKQSHGKSLEWIGNINPYSGSSGYNLKFKGKATLTVDKSSSTAYMQLNSLTSEDSAVYYCARGKDFAMDYWGQGTSVTVSS
VL: DIVMSQSPSSLAVSAGEKVTMSCKSSQSLLNSSTRKNFLAWYQQKPGQSPKLLIYWASTRESGVPDRFTGSGSGTDFTLTISSVQAEDLAVYYCKQSYNRYTFGGGTKLEIK
notes: Mouse hybridoma antibody
As to B2, the binding result in experiment [1] is recorded as “binds”; in experiment [2], “no binding (tested: 5 ug/ml)”; in experiment [3], “no binding (tested: 5 ug/ml)”; in experiment [4] it was “no binding (tested: 5 ug/ml)”; in experiment [5] it was “binds”. The IC50 in experiment [6] amounted to 0.431 µg/mL.

B3: mouse anti-human MCAM monoclonal antibody clone 1749.1.3 (antibody, V domains shown)
VH: DVKLVESGGDLVKPGGSLKLSCAASGFTFSSYIMSWVRQTPEKRLEWVATISSGGSSTYYPDSVKGRFTISRDNAKNTLYLQMSSLKSEDTAMYYCTRDDDYDVKVFAYWGQGTLVTVSA
VL: DIVMSQSPSSLAVSAGEKVTMNCKSSRSLLNSRIRKNYLAWYQQKPGQSPKLLIYWASTRESGVPDRFTGSGSGTDFTLTISSVQAEDLAVYYCKQSYNLLTFGAGTKLELK
notes: Mouse hybridoma antibody
As to B3, the binding result is listed as “binds” in experiment [1]; “no binding (tested: 5 ug/ml)” in experiment [2]; “no binding (tested: 5 ug/ml)” in experiment [3]; “no binding (tested: 5 ug/ml)” in experiment [4]; “binds” in experiment [5]. Besides, in experiment [6], the IC50 was determined as 0.545 µg/mL.
As for B4, in the experiment with recombinant laminin 511, the binding result is “no binding (tested: 10 µg/ml)”.

B5: mouse anti-human MCAM monoclonal antibody clone 1415.1.1 (antibody, V domains shown)
VH: QVQLQQPGAELVQPGAPVKLSCKASGYIFTSYWMNWVKQRPGRGLEWIGRIDPSDSKIHYNQKFKDKATLTVDRSSSTAYIQLGSLTSEDSAVYYCAKEGGLRRGDYAMDYWGQGTSVTVSS
VL: DIVMTQSPATLSVTPGDRVSLSCRASQSISDYLHWYQQKSHESPRLLIKYASQSISGIPSRFSGSGSGSDFTLSINSVEPEDVGVYYCQNGHNFPRTFGGGTKLEIK
notes: Mouse hybridoma antibody
In the case of B5, the binding result in experiment [1] was “binds”; in experiment [2], “no binding (tested: 5 ug/ml)”; in experiment [3], “no binding (tested: 5 ug/ml)”; in experiment [4] it was “no binding (tested: 5 ug/ml)”; in experiment [5] it was “binds”. This molecule yielded an IC50 in experiment [6] of 0.307 µg/mL.
